Drawing on paper PMC10250233, this text covers Kd for five substances.

Several values for one entry are separate records, joined by “and”; a condition that tells them apart may be missing. Equal values may be shown once. A value given as a limit tells only on which side of the number the result lay.

Common to all, as to test: fluorescence anisotropy
In data set [1] the target is CST (CTC1-STN1-TEN1) (human) (UniProt Q2NKJ3+Q9H668+Q86WV5). The conditions noted are these: FA: 200 mM NaCl, KCl or LiCl, 20 mM HEPES pH 7.4, 1 mM DTT, 22-25 C, 375 or 750 pM oligo, Kd,app +/- SEM, EMSA: 20 mM HEPES pH 7.4, 200 mM KCl, 1 nM 32P oligo.
Chain of CST (CTC1-STN1-TEN1) (human) (Q2NKJ3 whole entry, chain 1 of 3): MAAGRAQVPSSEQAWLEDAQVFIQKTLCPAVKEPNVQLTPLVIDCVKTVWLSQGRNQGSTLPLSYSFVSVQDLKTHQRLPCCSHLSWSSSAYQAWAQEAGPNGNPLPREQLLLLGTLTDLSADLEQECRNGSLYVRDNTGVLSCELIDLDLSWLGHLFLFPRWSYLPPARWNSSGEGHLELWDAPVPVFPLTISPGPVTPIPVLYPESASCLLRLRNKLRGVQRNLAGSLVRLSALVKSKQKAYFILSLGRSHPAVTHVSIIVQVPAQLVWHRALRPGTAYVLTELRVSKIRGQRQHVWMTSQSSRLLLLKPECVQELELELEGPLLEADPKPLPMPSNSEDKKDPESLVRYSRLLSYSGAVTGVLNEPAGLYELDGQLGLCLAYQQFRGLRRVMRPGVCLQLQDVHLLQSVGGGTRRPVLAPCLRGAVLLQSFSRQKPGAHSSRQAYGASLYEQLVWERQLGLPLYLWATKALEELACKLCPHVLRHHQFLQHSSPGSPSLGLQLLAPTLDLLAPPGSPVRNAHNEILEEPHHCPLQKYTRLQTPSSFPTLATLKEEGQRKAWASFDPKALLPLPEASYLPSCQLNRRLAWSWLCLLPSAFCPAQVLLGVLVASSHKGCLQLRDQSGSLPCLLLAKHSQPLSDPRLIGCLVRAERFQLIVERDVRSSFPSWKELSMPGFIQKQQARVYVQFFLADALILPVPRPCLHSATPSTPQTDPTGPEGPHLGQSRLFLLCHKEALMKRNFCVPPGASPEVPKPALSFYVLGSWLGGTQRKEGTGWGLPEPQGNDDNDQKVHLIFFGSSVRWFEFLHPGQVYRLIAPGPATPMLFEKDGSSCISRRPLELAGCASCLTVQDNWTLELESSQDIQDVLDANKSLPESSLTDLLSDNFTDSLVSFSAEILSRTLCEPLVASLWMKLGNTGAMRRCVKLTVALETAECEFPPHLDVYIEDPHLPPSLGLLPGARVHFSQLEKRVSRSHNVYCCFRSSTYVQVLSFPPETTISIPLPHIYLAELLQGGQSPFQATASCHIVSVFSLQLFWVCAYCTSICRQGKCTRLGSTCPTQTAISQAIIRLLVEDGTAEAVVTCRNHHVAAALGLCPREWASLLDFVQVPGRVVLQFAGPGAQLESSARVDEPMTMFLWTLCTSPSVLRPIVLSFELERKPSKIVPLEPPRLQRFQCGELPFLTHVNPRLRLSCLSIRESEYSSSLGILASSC
Chain of CST (CTC1-STN1-TEN1) (human) (Q9H668 whole entry, chain 2 of 3): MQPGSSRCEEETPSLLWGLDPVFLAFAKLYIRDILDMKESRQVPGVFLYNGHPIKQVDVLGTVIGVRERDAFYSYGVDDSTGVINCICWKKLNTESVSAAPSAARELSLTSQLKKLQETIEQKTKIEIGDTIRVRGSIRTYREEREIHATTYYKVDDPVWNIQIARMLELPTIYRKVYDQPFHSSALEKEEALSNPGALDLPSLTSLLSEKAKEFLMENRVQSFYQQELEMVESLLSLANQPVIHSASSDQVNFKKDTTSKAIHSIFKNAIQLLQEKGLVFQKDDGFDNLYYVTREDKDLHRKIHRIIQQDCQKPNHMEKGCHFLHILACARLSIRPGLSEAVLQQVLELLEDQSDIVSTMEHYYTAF
Chain of CST (CTC1-STN1-TEN1) (human) (Q86WV5 whole entry, chain 3 of 3): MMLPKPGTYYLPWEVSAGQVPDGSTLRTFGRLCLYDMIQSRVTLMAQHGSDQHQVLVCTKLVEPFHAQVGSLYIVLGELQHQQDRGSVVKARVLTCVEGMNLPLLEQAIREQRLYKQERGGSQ
The test system of the next data set is RPA Aro1 (human). The conditions noted are these: FA: 200 mM NaCl, KCl or LiCl, 20 mM HEPES pH 7.4, 1 mM DTT, 22-25 C, 375 or 750 pM oligo, Kd,app +/- SEM; EMSA: 20 mM HEPES pH 7.4, 200 mM KCl, 1 nM 32P oligo.
The subject of the next data set is RPA Aro3 (human). The conditions noted are these: FA: 200 mM NaCl, KCl or LiCl, 20 mM HEPES pH 7.4, 1 mM DTT, 22-25 C, 375 or 750 pM oligo, Kd,app +/- SEM; EMSA: 20 mM HEPES pH 7.4, 200 mM KCl, 1 nM 32P oligo.
A further data set has as its system RPA Aro4 (human). The conditions noted are these: FA: 200 mM NaCl, KCl or LiCl, 20 mM HEPES pH 7.4, 1 mM DTT, 22-25 C, 375 or 750 pM oligo, Kd,app +/- SEM; EMSA: 20 mM HEPES pH 7.4, 200 mM KCl, 1 nM 32P oligo.
Another data set relates to RPA AroA (human). The conditions noted are these: FA: 200 mM NaCl, KCl or LiCl, 20 mM HEPES pH 7.4, 1 mM DTT, 22-25 C, 375 or 750 pM oligo, Kd,app +/- SEM; EMSA: 20 mM HEPES pH 7.4, 200 mM KCl, 1 nM 32P oligo.
For a further data set, the system named is RPA AroB (human). The conditions noted are these: FA: 200 mM NaCl, KCl or LiCl, 20 mM HEPES pH 7.4, 1 mM DTT, 22-25 C, 375 or 750 pM oligo, Kd,app +/- SEM; EMSA: 20 mM HEPES pH 7.4, 200 mM KCl, 1 nM 32P oligo.
Another data set deals with RPA AroC (human). The conditions noted are these: FA: 200 mM NaCl, KCl or LiCl, 20 mM HEPES pH 7.4, 1 mM DTT, 22-25 C, 375 or 750 pM oligo, Kd,app +/- SEM; EMSA: 20 mM HEPES pH 7.4, 200 mM KCl, 1 nM 32P oligo.
Data set [2] addresses RPA WT (RPA70-RPA32-RPA14) (human) (UniProt P27694+P15927+P35244). The conditions noted are these: FA: 200 mM NaCl, KCl or LiCl, 20 mM HEPES pH 7.4, 1 mM DTT, 22-25 C, 375 or 750 pM oligo, Kd,app +/- SEM; EMSA: 20 mM HEPES pH 7.4, 200 mM KCl, 1 nM 32P oligo.

Chain of RPA WT (RPA70-RPA32-RPA14) (human) (P27694 whole entry, chain 1 of 3): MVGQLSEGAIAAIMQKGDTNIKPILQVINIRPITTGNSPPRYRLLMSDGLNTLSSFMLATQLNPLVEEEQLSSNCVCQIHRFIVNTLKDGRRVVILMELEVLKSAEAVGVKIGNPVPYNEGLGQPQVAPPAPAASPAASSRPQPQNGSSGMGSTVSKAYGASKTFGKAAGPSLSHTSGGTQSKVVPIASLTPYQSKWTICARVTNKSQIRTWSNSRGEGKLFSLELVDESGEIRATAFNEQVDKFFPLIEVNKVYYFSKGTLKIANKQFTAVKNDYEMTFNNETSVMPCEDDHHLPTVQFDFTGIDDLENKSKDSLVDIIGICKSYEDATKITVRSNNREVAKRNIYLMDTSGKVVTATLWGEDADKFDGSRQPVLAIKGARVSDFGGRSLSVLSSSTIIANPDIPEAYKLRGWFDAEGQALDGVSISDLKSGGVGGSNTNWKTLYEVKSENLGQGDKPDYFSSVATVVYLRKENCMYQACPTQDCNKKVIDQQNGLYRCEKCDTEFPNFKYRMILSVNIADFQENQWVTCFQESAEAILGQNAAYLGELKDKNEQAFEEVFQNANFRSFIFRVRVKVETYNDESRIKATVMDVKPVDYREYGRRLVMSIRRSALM
Chain of RPA WT (RPA70-RPA32-RPA14) (human) (P15927 whole entry, chain 2 of 3): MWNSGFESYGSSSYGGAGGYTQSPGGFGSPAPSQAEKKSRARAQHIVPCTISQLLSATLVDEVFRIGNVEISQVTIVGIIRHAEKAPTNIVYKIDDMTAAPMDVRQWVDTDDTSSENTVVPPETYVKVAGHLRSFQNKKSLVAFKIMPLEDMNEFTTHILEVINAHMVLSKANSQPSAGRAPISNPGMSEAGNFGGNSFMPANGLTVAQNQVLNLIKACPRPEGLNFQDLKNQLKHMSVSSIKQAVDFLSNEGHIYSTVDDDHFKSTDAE
Chain of RPA WT (RPA70-RPA32-RPA14) (human) (P35244 whole entry, chain 3 of 3): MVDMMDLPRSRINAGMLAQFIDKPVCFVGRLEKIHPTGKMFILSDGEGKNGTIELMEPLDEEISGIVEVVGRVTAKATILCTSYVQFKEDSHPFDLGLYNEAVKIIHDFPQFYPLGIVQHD

As for Tel18, the Kd is 6.7 nM in data set [1] (200 mM LiCl); 7.7 nM and 9.3 nM in data set [1]; 4.7 nM and 2.5 nM and 5.6 nM with RPA Aro1 (human); 0.24 nM and 0.56 nM and 0.65 nM with RPA Aro3 (human); 3.5 nM and 9.1 nM and 5.1 nM in the data set with RPA Aro4 (human); 0.79 nM and 0.34 nM and 0.36 nM with RPA AroA (human). Also, the Kd in the data set with RPA AroB (human) is 0.5 nM and 0.66 nM and 0.45 nM; in the data set on RPA AroC (human), 0.59 nM and 0.26 nM and 0.49 nM; in data set [2] it was 0.73 nM and 0.5 nM and 0.66 nM.
Consider Tel22, for which the Kd in data set [1] (200 mM KCl, printed >=, incomplete curve) is > 340 nM; in data set [1] (200 mM LiCl) it was 6.7 nM; in data set [1] it was 106 nM; with RPA AroA (human), 2.4 nM and 2.5 nM and 0.36 nM; in data set [2], 1.23 nM and 1.99 nM and 0.35 nM.
Tel30: the Kd in data set [1] (200 mM LiCl) was 5.2 nM; in data set [1] it was 67 nM and 112 nM; in the data set with RPA AroA (human), 0.48 nM and 0.77 nM and 0.29 nM; with RPA AroB (human), 1.07 nM and 1.9 nM and 0.36 nM; in the data set with RPA AroC (human), 0.62 nM and 1.62 nM and 0.28 nM; in data set [2] it was 0.96 nM and 0.81 nM and 0.32 nM.
Turning to Tel40, the Kd in data set [1] (200 mM LiCl) was 0.73 nM; in data set [1], 0.74 nM and 1.1 nM; in data set [2], 1.3 nM and 1.1 nM and 0.9 nM.
Turning to Tel60, the Kd is 1.2 nM in data set [1] (200 mM LiCl); 10.6 nM and 9 nM in data set [1]; 0.79 nM and 0.69 nM and 0.8 nM in data set [2].
